Reference: the DeepSol protein solubility set

Test: soluble on expression in E. coli; label from the status in PepcDB or PDB records

Sequence | soluble on expression in E. coli
MKLIKNAEFGGERPLFESHDLRLENVIIRTGESAIKECSNIETVDCRFEGNYPFWHVHGFKIDRCYFDVGGRSALWYSDHLKMTDTIIDAPKMFREMDEIDIENVTMNDADEVFWRCNGIRIKNLKLHGGTYPFMFSNNIYVDGLESNSKYVFQYVKNVEIHHAKITTKDAFWEVENVTIYDSELNGEYLGWHSKNLRLVNCHITGEQPLCYAHDLILENCTFGPDCDRTFEYSTLQADIHGAITNIKNPMSGCIVADEFGSITIDENIKAPADCEIRLRDERTCFTD | soluble
MAEKTVYRVDGLSCTNCAAKFERNVKEIEGVTEAIVNFGASKITVTGEASIQQVEQAGAFEHLKIIPEKEA | soluble
MGSDKIHHHHHHMTTNIKTDFSPPATATPVLEMQGIAKRFHGVPALQGVNLTIYPGEVHALMGENGAGKSTLMKILAGAYIADEGEIRINGKGVKITDPGTARQAGINLIYQELNVAPNLTVTENIFMGSELTRGQFLDRKAMELEAQQVLASLGASFAPTDIVGTLAIAEQQQVEIARALKDNSRILVMDEPTAALSDRETERLFEVIRKLRNDGIAIIYISHRMEEIYALADRISVLRDGQYIGSLTREEISPQRLVQMMVGRSMQDFYEHQRQSNPGPVVLEVRNISDGRKVQPASFQLRAGEILGLAGLVGAGRTEVSRLIFGADRKVSGEVFLNGKKLEIHSPSDAIAVGIGYVPEDRKDQGLFLEMSSRKNIGLNRLKQDANLGIVNWGSVNKIATDAVENFHIRLANLEIRAVDLSGGNQQKLLLARWLAINPRVLMLDEPTRGVDIGAKSEIYRIISDLSAQGVAILMVSSELPEIVGLSDRVLVMREGQLVGELDNSIGKEITQENIMHYATGASEVTAS | not soluble
MHHPPVEELELIDSPAALEWAREWSQATQERWSNDALQRSIREALDTDARIPYVTRRGEYLYNFWRDRDHPRGVWRRTTLESFTSDSPQWQVLIDVDRLAASEEESWVWKGAHVRPHHFDRALIRLSRGGADAVEIREFDLDSGSFVEDHAFAVPEAKTQVCWVDRDTVLVGTDMGAGSLTESGYPARVHVWRRGTNLAEAEEFFCGLSSDLAVSAWAETVPGFERLFVRRALDFYRSRTFIQRDGHLQIIEVPEDCTVVVHREWMYVLPREEYAGIASGGVGAILFEDF | not soluble
MGSDKIHHHHHHMSTEHQLLVGLLKKLKDDALVLPTLPEVAMRVQEVVSRQDSSLKQVADIIGQDAAISARIIKVANSALYSRGNKAESINAAVSRIGLVQIKSITTSVAMEQLFISTNEMVWEVMDEVWKTSIEVTASSCAMLEMYNKRHPTKKLDRDTLTLAGLVHNIGALPVLTEAEVHPELFGRIDDLRSLVRKMQGPIGRAVLKTWDFAPEVMEVVERWADLHYLPEKVTYLDFIRSAAFYTGELRAGEELEERLGVFAQRGLPVTPEDLASDEFINMYHSIMQSYE | not soluble
MFADRLFNAMERNEPAPGMVLVAAPSMESEDFARSVILIIEHSEYATFGVNLASRSDVAVFNVIPEWVPCVTKPQALYIGGPLNQQSVVGVGVTAQGVDAARVDNLTRLANRLVMVNLGADPEEIKPLVSGMRLFAGHAEWAPGQLAQEIENGDWFVAPALPSDVTAPGSVDVWGDVMRRQPMPLPLYSTFPVNVVGENLEHHHHHH | soluble
MLKGEDIGIDLGTASVLIYVRGKGIVLKEPSVIAVVQGKREVKAVGAEAYRMLGRTPGNIVAVRPLKDGVIADYALTEKMLLLFLQKVLSPMSRLFKGRVRIMVGVPSGVTDVERRAVVQAVSTLAHKVYLIEEPLAAAIGAGINVAEPTGSMVVDIGGGSTDIAVISLGGIVRSESLRIAGNEMDQAIILHIRQKYNLLIGERTAEELKIRLGRAKLLPGEEKEVAEVRGRDLLTGLPRTAEIPAEDIVEALQEPLSKIFQGVRNVLESTPPELASDIYERGILLTGGGALLRNLDVALQKATGVPVVVTENPIEAVALGTGKALEMLHVLEDTILSSDDVLRR | soluble
MSLTDLDRVGLPVFQAVRPMGRSLSVSQGKGMTSMAARVSAMMEAVEIWHAEQDLPTTLRATIRSLGTRRAMDPNQLLMPGRDKVCEDLPIVWCPSLNLLDGADVLVPRDAANLDFTRAPDPPMLARSTTGLAGGNTRDEARASAIAEVIERACQREFQRLPPASRAQRRLDPTCLASAHRGLADPIERIRSAGLHLDIFDMTNRFDVPAIRAVIYETTAGKPVAWPCLGHGAHLDPVTAVVRALTEAAQARLTGISGNRDDISPGHYAGADMSNWVLRAMNGMDMSGTRRGLRHHDASGDSPAADVAAMIARITAHDADPLLEVDLSRPEIGVPVVKIIAPRIAYLASREGHHHHHH | not soluble
LGSPMAYFVENFWGEKNSGFDVLYHNMKHGQISTKELADFVRERATIEEAYSRSMTKLAKSASNYSQLGTFAPVWDVFKTSTEKLANCHLDLVRKLQELIKEVQKYGEEQVKSHKKTKEEVAGTLEAVQTIQSITQALQKSKENYNAKCVEQERLKKEGATQREIEKAAVKSKKATDTYKLYVEKYALAKADFEQKMTETAQKFQDIEETHLIHIKEIIGSLSNAIKEIHLQIGQVHEEFINNMANTTVESLIQKFAESKGTGKERPGLIEFEECD | soluble
TTEENSKSEALLDIPMLEQYLELVGPKLITDGLAVFEKMMPGYVSVLESNLTAQDKKGIVEEGHKIKGAAGSVGLRHLQQLGQQIQSPDLPAWEDNVGEWIEEMKEEWRHDVEVLKAWVAKATKK | soluble
MTYQTIVVAVDGSKEAEWALKKAIQIAKRNGAKLILSHIIDLRGFTTVEAHDYALAERSEQYANELLERYKNEAIAAGLDDVDIAVEFGSPKVKIAKDVAPKYKADLIVCGATGLNAVERLLIGSVSENIVRHAKCDVLVVRTPKE | soluble
MNEALDDIDRILVRELAADGRATLSELATRAGLSVSAVQSRVRRLESRGVVQGYSARINPEAVGHLLSAFVAITPLDPSQPDDAPARLEHIEEVESCYSVAGEESYVLLVRVASARALEDLLQRIRTTANVRTRSTIILNTFYSDRQHIP | soluble
MSQRIIQPSASDQQFPGKSDGYEYTVGPKQAITSEASTTYIPSRIYSESLLFKRQEASLSAMAFLFQEMISQLHRTCKTAGDFETKLSDYGHNIGIRLLELLNFRASVSPSSLPRASAFLSQNESSSKLSNASNSPGMLANSSTATSASANERLQEKQTESLSNYITKMRRRDLKILDILQFIHGTLWSYLFNHVSDDLVKSSERDNEYMIVDNFPTLTQFIPGENVSCEYFVCGIIKGFLFNAGFPCGVTAHRMPQGGHSQRTVYLIQFDRQVLDREGLRFG | soluble
MAHHHHHHMARLKVLNVAEKPSVASSIAEILSKGRPNKIKSCSKYNPVFTFDYKIKNDIWYMYVTSVTGHLTDQKFDDRYKNWHNTDPQELFDAEITVYVEKDKKNIENNLKKYSKECNMLILWLDCDREGEHICFEVINACRITNRKLIIHRAQFSAVTEKDIIHAINNLKEPNKNLAYSVDVRREIDLRMGSIFTRFMTIRYIELVKHETSIISYGPCQFPTLGFVVNRYLDIKNFKNEYYWSIKMKYVYNNDEINPMDDENNYDDHDDEQMDSDSDESDSYYTNNDDSNNYSDETDDYYGD | not soluble
MSLTTRRDFIKKTVAGTAALSLGSIIPGFGSNSYQEILGANEKIRIGVIGVNSRGNALAQGFAKMKGCEVTYLCDVDSRALERCQADIHKISGRTPKGEKDIRKMLESDDFEAVVIATPDHWHGKAAIMAMQAGKHVYLEKPTSHNPAENEMLVRATLKYNRIVQVGNQRRSWPNVIKAIEEIKSGAIGKVRYAKSWYVNNRPSIGTGKVVPVPDYLDWDLWQGPAPRVPNFKDNYIHYNWHWFWNWGTGEALNNGTHFVDILRWGLGVDYPTKVDSVGGRYRFQDDWQTPDTQLITFQFGDEASCSWEGRSCNSTPVDGYGVGTAFYGETGTLFISGGNEYKITDLQGKVIKDVKSNLKFETGNLLNPSEKLDAYHFENWFDAIRKGGKLNSGIVDACISTQLVQLGNIAQRVGHSLDIDPGSGRILNDLEANKLWGREYEKGWEIREGHHHHHH | soluble
MGSDKIHHHHHHMSISLATISGRVHAGERISDEEALFLFESRDPLAVGELAAAVNRRRNGDRVFFNVNRHINHTNICVNRCSFCAFYRAADEPGAYLYDLEEIRNRAAEAHAQGATEIHIVGGLHPDLPFDFYLAMLRTVKEVSPDLHVKAFTAVEIEYLSRLAGLSTAETLTVLKEAGLGSLPGGGAEIFAPAVRNRLCPEKISGDKWLAIMEEVHRAGLKSNATMLYGHIESYADRVDHMRRLRELQDRTGGFQVFIPLAFQKDNNPLGHLKRPGPGGVDALLTLAVARIYLDNFANIKAYWVMLGVKIAQTSLAFGVNDLDGTVVEEKIGHDAGAASPQTMGRDEIVSLIRTAGRVPVERDTLYNELRVY | not soluble
MKVTIIGASGRVGSATALLLAKEPFMKDLVLIGREHSINKLEGLREDIYDALAGTRSDANIYVESDENLRIIDESDVVIITSGVPRKEGMSRMDLAKTNAKIVGKYAKKIAEICDTKIFVITNPVDVMTYKALVDSKFERNQVFGLGTHLDSLRFKVAIAKFFGVHIDEVRTRIIGEHGDSMVPLLSATSIGGIPIQKFERFKELPIDEIIEDVKTKGEQIIRLKGGSEFGPAAAILNVVRCIVNNEKRLLTLSAYVDGEFDGIRDVCIGVPVKIGRDGIEEVVSIELDKDEIIAFRKSAEIIKKYCEEVKNL | soluble
MLSNQQIRNFSRGVGHLRRRAAKNNVIKVRPEELRPFFNQYSVLPNGIQNDADAKLFSKELQPGERKLLFDALRKITADQYNDHKKVVEVTIDHEDLVKVWYINFIPMFVYGCLDEAFLIIGGESINK | not soluble
MEENMNIKQLKSKTMLGTVALVSAFSFASTNADANTYNYAVDVDYLASAEEIAQAHPASNTFPLGQCTWGVKEMATWAGNWWGNGGDWAASAASADYTVGTQPRVGSIVCWTDGSYGHVAYVTAVDPVTNKIQVLESNYAGHQWIDNYRGWFDPQNTVTPGVVSYIYPNLEHHHHHH | not soluble
MIARRNPIEQLPAIAQDPDKFGVLLSAAEFRTHLVESIRQARKRIYLVALYLENDDAGREILTELYAAKQRNPGLEIHICVDWHRAQRGLIGAAESEGNAAMYRDFAQQHEHCIPVYGIPVRGREVFGVLHLKGFIIDDQVIYSGASLNNVYLQFHGRYRFDRYHTLENAELADSMVHFIQQEMLAHPAVNNLACGSKPTTKEIKSDIRQFRASLAQANYQFAKQKVNEGQVAVTPLVGLGRRRNRLNQSIIQLLASAKDEVFICTPYFNFPPSIAKEVKKALRRGVKVHIVIGDKTANDFYIAPEEPFKTIGGLPYLYELNLRRFAKANEAHIASRKLSIHLWKHENHSFHLKGIWVDKRYMLITGNNLNPRAWKLDLENAILIRDDYHHLTTKFEAEIDNILQHTQLICTYKQIEKPEHYPEKVQRLVRRIMRLKADRVLKQILLEHHHHHH | soluble
MIKRTLLLAMLPILAHAEELPAPVKAIEKQGITILKSFEAPGGMKGYLGKYQDMGVTIYLTPDGKHAISGYMYNEKGENLSNALIEKEIYAPAGREMWQKMEKASWILDGKKDAPVVLYVFADPFCPYCKQFWQQARPWVESGKVQLRTLLVGVIKPESPATAAAILAAKDPAKTWHDYEASAGKMKLEVPASIPPAQMKVINQNQQLMDDLGANATPAIYYMNKDKILQQVVGLPEKAQLDAMMGQP | not soluble
MSLYDNDLWFATINLPYRQKLELLRIYKTSDEILYNFKNSELIQKYKFDIEKINYIKDEMKKSGMKIVFWNDDDYPKVLKNYDDMPYGLFYMGNIKKLNELNYNVAIVGSRRCTQYGKDITTIISREISINGIGIISGMARGIDTYAHKICLENNGYTCAVLGCGADVIYPKENKNLYCQIIRNGCIISQYKPNTKPLPYNFPIRNKIISGLSNLVLVTEADIKSGSIITASSALEQGKDVGAVPGSVFSKMSRGTNKLIQDGAHVIKDIDDVFGILNFQKINFKKIRNNSSYSSMPENQRQIYDLVSDKPIHVDDIKRCLNIDIQELYELLFEMQLKNKILCLSGSYYVRVNDCLEGHHHHHH | soluble
